Test system: Escherichia coli TOP10
Assay: shrunken log2 fold change of peptide-encoding DNA abundance (4.5 h post-induction vs induction); higher = less antimicrobial activity (less host growth inhibition)
Conditions: time post-induction: 4.5 h; library: site-saturation at positions 5, 18, 19, 20
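Also: peptides expressed intracellularly from a pBAD plasmid library in pooled LB shake-flask culture, induced with 0.3% L-arabinose, DNA abundance read by NGS, three biological replicates, DESeq2 with apeglm shrinkage.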

Sequence	shrunken log2 fold change
RRIRMRPPRLPRPRPRPWTKPRP	-0.0384
RRIRVRPPRLPRPRPRPTEKPRP	-0.0708
RRIRPRPPRLPRPRPRPRGRPRP	0.713
RRIRRRPPRLPRPRPRPNTFPRP	0.085
RRIRKRPPRLPRPRPRPMDHPRP	0.34
RRIRERPPRLPRPRPRPSFVPRP	-0.588
RRIRVRPPRLPRPRPRPCVIPRP	-0.0142
RRIRNRPPRLPRPRPRPNKHPRP	-0.528
RRIRGRPPRLPRPRPRPIYQPRP	0.0644
RRIRVRPPRLPRPRPRPYYPPRP	-0.414
RRIRRRPPRLPRPRPRPPNCPRP	0.15
RRIRYRPPRLPRPRPRPNEMPRP	0.0143
RRIRSRPPRLPRPRPRPYWRPRP	-0.21
RRIRPRPPRLPRPRPRPMMLPRP	-0.143
RRIRVRPPRLPRPRPRPMHSPRP	-0.179
RRIRMRPPRLPRPRPRPTYHPRP	-0.242
RRIRWRPPRLPRPRPRPADRPRP	0.0754
RRIRERPPRLPRPRPRPTNQPRP	-0.414
RRIRQRPPRLPRPRPRPNVFPRP	-0.14
RRIRKRPPRLPRPRPRPDWFPRP	0.178
RRIRKRPPRLPRPRPRPKMQPRP	0.00648

Sequence	shrunken log2 fold change
RRIRYRPPRLPRPRPRPIMYPRP	-0.0119
RRIRSRPPRLPRPRPRPKRSPRP	0.205
RRIRVRPPRLPRPRPRPNFQPRP	-0.175
RRIRARPPRLPRPRPRPPFKPRP	0.368
RRIRERPPRLPRPRPRPYSYPRP	-0.0155
RRIRNRPPRLPRPRPRPADFPRP	0.0143
RRIRPRPPRLPRPRPRPWGGPRP	0.702
RRIRLRPPRLPRPRPRPQMSPRP	-0.111
RRIRIRPPRLPRPRPRPWAAPRP	0.00251
RRIRVRPPRLPRPRPRPKEDPRP	0.0522
RRIRIRPPRLPRPRPRPSDMPRP	-0.309
RRIRGRPPRLPRPRPRPHWTPRP	0.00915
RRIRPRPPRLPRPRPRPIICPRP	-0.188
RRIRHRPPRLPRPRPRPVTIPRP	-0.311
RRIRLRPPRLPRPRPRPKSAPRP	0.139
RRIRWRPPRLPRPRPRPTIWPRP	0.0311
RRIRLRPPRLPRPRPRPNDYPRP	-0.582
RRIRVRPPRLPRPRPRPSLTPRP	-0.231
RRIRDRPPRLPRPRPRPMFQPRP	-0.0111
RRIRIRPPRLPRPRPRPGFYPRP	0.054
RRIRPRPPRLPRPRPRPLVKPRP	-0.0409

Sequence	shrunken log2 fold change
RRIRKRPPRLPRPRPRPNFRPRP	0.155
RRIRDRPPRLPRPRPRPNSDPRP	-0.272
RRIRNRPPRLPRPRPRPTANPRP	0.0124
RRIRNRPPRLPRPRPRPPVKPRP	-0.123
RRIRLRPPRLPRPRPRPHEYPRP	-0.0491
RRIRCRPPRLPRPRPRPMTFPRP	-0.0603
RRIRERPPRLPRPRPRPDHAPRP	-0.318
RRIRWRPPRLPRPRPRPETTPRP	0.234
RRIRMRPPRLPRPRPRPRDRPRP	1.11
RRIRGRPPRLPRPRPRPMTDPRP	0.603
RRIRHRPPRLPRPRPRPDGHPRP	-0.0262
RRIRRRPPRLPRPRPRPPHVPRP	0.915
RRIRKRPPRLPRPRPRPYCNPRP	0.068
RRIRARPPRLPRPRPRPFFYPRP	0.105
RRIRLRPPRLPRPRPRPGKRPRP	0.364
RRIRARPPRLPRPRPRPYFCPRP	-0.346
RRIRFRPPRLPRPRPRPPNCPRP	-0.159
RRIRDRPPRLPRPRPRPHYFPRP	-0.119
RRIRGRPPRLPRPRPRPIVSPRP	0.158
RRIRWRPPRLPRPRPRPRFYPRP	-0.00432
RRIRSRPPRLPRPRPRPKSFPRP	0.172

Reference: the supplement of paper PMC9112550, “Optimization of the antimicrobial peptide Bac7 by deep mutational scanning” (BMC Biology, 2022)
